± gives the standard deviation.
Assay: protein stability index of a GFP-peptide fusion (GPS, HEK-293T) (PSI 1-6); higher = more stable
[1] = treatment: DMSO, c terminus: a fixed tail appended
[2] = treatment: MLN4924 1 uM, 8 h, c terminus: a fixed tail appended
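Note: 24-mer peptide tiles fused after GFP, lentivirally expressed, FACS-sorted into six equal bins by GFP/DsRed ratio, decoded by Illumina sequencing, PSI is the read-weighted mean bin number.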

Sequence | protein stability index [1] | protein stability index [2] | protein stability index (treatment: DMSO, c terminus: native) | protein stability index (treatment: MLN4924 1 uM, 8 h, c terminus: native)
LVDVACKHLTDTSHGVRNKCLQLL [INTS4] | 2.18 ± 0.49 | 2.46 ± 0.17 | – | –
KRRKDSEEEAASPEGKRVPKRLRC [FANCE] | 5.08 ± 0.3 | 5.12 ± 0.26 | – | –
DATPPVSPINMEDQERIKVERKRL [JUNB] | 5.53 ± 0.2 | 5.36 ± 0.4 | – | –
CLGVHCDFHQGLLSFYNARTKQVL [FSD1] | 2.42 ± 0.69 | 2.27 ± 0.18 | – | –
DCLAAWEEWLLVGTKQGHLLLYRI [VPS39] | 2.92 ± 1.1 | 2.51 ± 0.32 | – | –
PNTAVSVHVSESSDDDEEEEENIG [ACBD3] | 5.5 ± 0.3 | 5.63 ± 0.12 | – | –
DDDAEEEGPKRELGVRRPGGAGKE [TCF25] | 5.58 ± 0.2 | 5.66 ± 0.15 | – | –
EEEEEEEEVDLACTPTDVRDVDI [CCND1] | – | – | 4.5 ± 0.5 | 5.14 ± 0.34
VDLELFPSPDMECADVPLLTPSSK [ETS1] | 4.07 ± 0.24 | 4.05 ± 0.2 | – | –
YSGTFALIGAAAFLGGVVRMTISL [CLCN6] | 3.78 ± 0.31 | 2.86 ± 0.15 | – | –
GCLGHGSLTDISQPTIVEALLGYE [NEK8] | 3.1 ± 0.11 | 3.18 ± 0.4 | – | –
SEIGTSDQIVPEYQEDSDISSFFC [TRIB1] | 4.39 ± 0.47 | 4.55 ± 0.36 | – | –
FEDAKEKMREFTKTIKRPFGVKYN [TPH1] | 2.9 ± 0.21 | 3.1 ± 0.26 | – | –
GLKKLNLHEEEHVLLMAICIVSPD [VDR] | 3.13 ± 0.57 | 2.83 ± 0.54 | – | –
RAQLPKYQRNLPRPGQAPIGNPPV [ZNF207] | 3.75 ± 0.26 | 3.79 ± 0.14 | – | –
SHYFKIIEDLRAQIFANTVDNARI [KRT18] | 2.4 ± 0.44 | 2.07 ± 0.24 | – | –
VDFTFVENVVHGHILAAEQLSRDS [NSDHL] | 2.37 ± 0.36 | 2.26 ± 0.4 | – | –
EYVLLKALALANSDSVHIEDAEAV [ESRRA] | 3.36 ± 0.33 | 3.55 ± 0.37 | – | –

Sequence | protein stability index [1] | protein stability index [2] | protein stability index (treatment: DMSO, c terminus: native) | protein stability index (treatment: MLN4924 1 uM, 8 h, c terminus: native)
SEASIASNLQAMSTQMFQTKRCFR [SMG5] | 3.94 ± 0.13 | 4.08 ± 0.15 | – | –
FAKKLVDRTWTLCGTPEYLAPEVI [PRKX] | 2.63 ± 0.8 | 2.29 ± 0.19 | – | –
PDANTWTALPPMNEARHNFGIVEI [GAN] | 2.42 ± 0.34 | 2.51 ± 0.43 | – | –
LWEAEDRQNVPRKVPNHYIAIPEW [CPXM2] | 3 ± 0.31 | 3.02 ± 0.32 | – | –
EALKHPWVCQRSTVASMMHRQETV [CAMK2B] | 2.88 ± 0.27 | 2.97 ± 0.21 | – | –
YSAPPGDPLSTNYSLAPNTPINQN [NFE2L1] | 4.48 ± 0.27 | 4.54 ± 0.2 | – | –
PKLREETAHMLGVRELRIAFREFD [CABP4] | 2.92 ± 0.29 | 3.17 ± 0.29 | – | –
IPEGLNYSENAPFHLSLFQGWMNL [PLD5] | 2.2 ± 0.55 | 1.91 ± 0.38 | – | –
GLRRVLDELTLARTDLEMQIEGLN [KRT15] | 2.71 ± 0.3 | 2.66 ± 0.19 | – | –
LFVNSHPGIDRPGMLCSFRIPGAW [DCAF4] | 2.38 ± 0.59 | 2.24 ± 0.43 | – | –
LVTLNDMKAKQEALVKEREKQLAK [FAM50A] | 4.23 ± 0.24 | 4.25 ± 0.45 | – | –
LTLSQYILLDPILMFFIMAAMLSM [POMT2] | 3.29 ± 0.56 | 2.95 ± 0.69 | – | –
ALLADEERCLSCILAQQPDRLRDE [TRADD] | 4.28 ± 0.2 | 4.3 ± 0.12 | – | –
ELVLCVLVSIRNNRNLQKFSLFGD [FBXO33] | 2.87 ± 0.54 | 2.86 ± 0.34 | – | –
MPEFSSDSTMRILSNLVQHILKKY [RTP4] | 2.2 ± 0.39 | 2.52 ± 0.31 | – | –
NMDPAGLDDEDDTSIGMPSLMYRS [RETREG3] | 4.87 ± 0.15 | 4.91 ± 0.1 | – | –
DPRVQDFLQRCLESPFSRKLDLWS [NET1] | 2.34 ± 0.25 | 2.27 ± 0.25 | – | –
CRANRNCPIDQHHRNQCQYCRLKK [NR2F2] | 4.2 ± 0.044 | 4.39 ± 0.14 | – | –

Reference: the supplement of paper PMC10567573
